What follows are sequences tested on K4 kissing-loop RNA reporter (assay: apparent KD of K4 kissing-loop reporter; higher = weaker reporter binding). Details: Eterna round: R107; input ligand: theophylline 20 uM.
Protocol: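 RNA-MaP round R107: designed RNA switches with theophylline, tryptophan, arginine or FMN aptamers are transcribed on-chip within common flanks. They are titrated with a labelled K4 kissing-loop RNA reporter in RNA-MaP buffer (100 mM Tris pH 7.5, 80 mM KCl, 4 mM MgCl2), without ligand or with the indicated ligand. Median apparent KD per design.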
“UUUAUAUAGUCGGCCGCCACUGAUUUUUAUAUAUGUUUAUGUUUAUACGAGUGAUGUUCGAUAUACAGGACCGGGACUUUUGUUA [JR_SSTryptoB_Sub017]” was tested, and the “apparent KD of K4 kissing-loop reporter” value was 306 nM.
“GCGUCGCAGGUCGCAGUACCAUCGCGGGAUACCAGCCCUGCUACCGGCCCUUGGCAGCCCGGUUAUCGGUUAGUGAUGUUAGCCA [theeternabot_sameState_KL_Theo_A_44]” was tested, and the “apparent KD of K4 kissing-loop reporter” value was 621 nM.
“GUAUGUGGAAACACGUACUUGUAUCCUAAGCAGGAUAUGCGGAAACGCAGAAGGGCUACCAACGAGUUUAUCCAGUGAUGUUGGA [Ex FMN A 13]” was tested, and the “apparent KD of K4 kissing-loop reporter” value was 393 nM.
In the case of “GUUACGCAUGGAAGGAGCGCAUGCUCAGCUAUAAGCUCAGUGAUGUUGAGCAUUUUUUUUUUGCAGGUAGGUCGCCAUGUGUAAC [Ex Arginine B K4 30]”, the “apparent KD of K4 kissing-loop reporter” value was 191 nM.
In the case of “UGGACCUGACUCGAUACGAGUCAAUGAGAUACCAGCCACGAAAGUGGCCCUUGGCAGCUCUGCCAGUGAUGUUGGUCAAGGUCCU [#SwitchBubble 9 #StaticStem]”, the “apparent KD of K4 kissing-loop reporter” value was 765 nM.
“AAAUAGGAGUAAAUAAACAAUUUCCUUAGAGAGGAUAUUGGUAAUACAAGAAGGCUCUGUUGGGAGUGAUGUUCCCAUAACGCCU [Exclusion FMN A GF13]” was tested, and the “apparent KD of K4 kissing-loop reporter” value was 65.9 nM.
“ACAGAGUGAUGUUUUGUAAAGAUCUUUGAUACCAGCGCCAGAAAUCGCCCUUGGCAGCAAGCCGUACAUACGUUGAUUGAUCCAC [theeternabot_exclusion_KL_Theo_A_14]” was tested, and the “apparent KD of K4 kissing-loop reporter” value was 758 nM.
For “ACGCGCGCGAGUGAUGUUCGGAGCGGCUGGCAGGAUAUGUAGCAAUGCAGAAGGGUCGUGGCGGCGCGGCCGUAAGGCGGCGCCG [#2 Exclusion - FMN A Attempt #14 (HarryS)]”, the “apparent KD of K4 kissing-loop reporter” value was 535 nM.
With “GGACGAGUGAUGUUCGUUAUUAUGCAUUCAGAGGAUAUAGGAUUAGCUAGAAGGCUGAAUCAAUCUUCGAGUGAUGUUCGAGGAU [Same State FMN A GF 10]” the “apparent KD of K4 kissing-loop reporter” value was 151 nM.
For “UGAUAAUGCAGUGAUGUUGCUAGAAACGAUACCAGUUAAGAAAAGAACCCUUGGCAGCGUAAAGUGCGCUCUAAUGAGUGUGCUU [#10 K4 Theophylline A Same State]”, the “apparent KD of K4 kissing-loop reporter” value was 212 nM.
With “GCAUCCGAUGCAGGAUAUAGAUGAACGAGUGAUGUUUGGAAUUUAUGUCCAAAGCCUACGAUCAGACUAGAAGGGCAUCGGAUGC” the “apparent KD of K4 kissing-loop reporter” value was 197 nM.

Same assay, conditions: Eterna round: R107; input ligand: tryptophan 2.4 mM
“UAGUCCUAGUGAUCCUUAUCAAGUGGUGGGCGAGGACCGGUACGGCCGCCACUCGAAUAUGCAGUGAUGUUGUAAUCCGGACAAU [Exclusion - Tryptophan A (Freestyle 11)]” was tested, and the “apparent KD of K4 kissing-loop reporter” value was 580 nM.
With “GGAUAGGACAGAGGAUAUGGUGCUAGGCAAGAAUAACUUGUCUAGCAAUCCAUGAGGAGUGAUGUUCCAGAAGGCUGUCCUAUCG [FmnBX 3 - #SwitchBubble #StraticStem #DoubleMagnetSystem]” the “apparent KD of K4 kissing-loop reporter” value was 118 nM.
In the case of “CCAUAUUCGUCGGCCGCCACUAUAAGCCAUCAUACAUUGGCUCUGUGAAAGUGAUGUUUUCUUGAUAGGACCGGGACUGUCAGCA [theeternabot_sameState_KL_Trp_B_24]”, the “apparent KD of K4 kissing-loop reporter” value was 646 nM.
For “UUUUAAUGCAGUGAUGUUGCAAAUAAAACAGAGGAUAUGCAUGGAAGCAGAAGGCUGAUAUGUCGUACUUCGACAUAUUAUAUUU [JR_SSFMNA_Sub012]”, the “apparent KD of K4 kissing-loop reporter” value was 81 nM.
With “AGUCCACUCUAAAGAGUGGACCUAAGGGAUACCAGUGAUGUUGGUCACCCUUGGCAGCCCAGGGCCCGGCGAAUAGCCGGGCCCA [#10 K4 Theophylline A Exclusion]” the “apparent KD of K4 kissing-loop reporter” value was 125 nM.
In the case of “AAAUUUAAUAUAUUUAAUUAAUUAUGUGAUACCAGACAUUUAUAAGUCCCUUGGCAGCACAAUGCAGUGAUGUUGCAUAUAAUAA [JR_SSTheophyA_Sub012]”, the “apparent KD of K4 kissing-loop reporter” value was 67.5 nM.
In the case of “GUUAUGGACCUGGAUACCAGCUGGUACUAAGUGGGAAAAUGAAAGUGAUGUUUUCGUGCUAGCCCUUGGCAGCCAGCAACCCGCA [XTheo-B6]”, the “apparent KD of K4 kissing-loop reporter” value was 110 nM.
With “UAUUAAUUGUCAGGAUAUCGAAAUCGAGUGAUGUUCGUAAAUUAAUUAUUAUUAAUAAUAUUUAUACGAGAAGGGACAUUAUUUA [JR_SSFMNB_Sub002]” the “apparent KD of K4 kissing-loop reporter” value was 532 nM.
“AACGUUUUGUGAAGGAGCGCGAAAAGCAGUGAUGUUGCUUACUUACAAUUUAGAUUUAACACGCAGGUAGGUCGCACAAUACGUA [JR_SSArginiB_Sub016]” was tested, and the “apparent KD of K4 kissing-loop reporter” value was 219 nM.
With “GGCAGUGAUGUUGCCAGUGGCGGAUGCGAAGGAGCGCGGUGAGACGCAGGUAGGUCGCGCAUUGAAAUUGCUGUCACUAGGAUGC [whbob_Ex_Arginine_A_2t129]” the “apparent KD of K4 kissing-loop reporter” value was 212 nM.
In the case of “UUUUUUAAGAUGUCGACCAACCCGAAGCUACGAGGACCGGUACGGCCGCCACUCGCCAGUGAUGUUGGCGACUGGUGAAACCAUG [Ceesaror]”, the “apparent KD of K4 kissing-loop reporter” value was 227 nM.
With “AAGGCCACGAGAAGGAGCGUGUUGUGGAGUGAUGUUCCAUUGUAGACCUAAGGUCUGCAAGCACAGGUAGGUCGCUCGUGGUCAA [whbob_SS_Arginine_B_2t149]” the “apparent KD of K4 kissing-loop reporter” value was 127 nM.
For “AAGGUUGUGCAUGGGAGUGAUGUUCCCAAGCAGGAUAUCGCUCACGCGAGAAGGGCUUGCACAACCGCUCAAGAAACUUGAGCAA [Omei KL FMN A SS C v6]”, the “apparent KD of K4 kissing-loop reporter” value was 188 nM.
“GGUAGCAUGGCGGCCGCCACUUCAAGUGGAGUGAUGUUCCGCGGCAUCGCGAAAGCGAUGCCUGGAAGGACCGGGCCAUGCUACC” was tested, and the “apparent KD of K4 kissing-loop reporter” value was 306 nM.
In the case of “UGGAGGAAUCGACCUCGAAAGAGGAUGGAUACCAGAGAAGAAAUUCUCCCUUGGCAGCCAGUGAUGUUGGAACCUCCUAAAUAAA [#SwitchBubble 18 #K4Late]”, the “apparent KD of K4 kissing-loop reporter” value was 622 nM.

Source: the supplement of paper PMC9170038
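Also: bound reporter read as fluorescence of individual clusters on recovered sequencing chips by microscopy, with normalized cluster intensities fitted with a binding model.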
